# Patent publication US20230095569A1 (ANTENGENE BIOLOGICS, published 2023)
# Where a chain is given by its changes, count along the chain named.
# B1: IMAB362 (Zolbetuximab) (antibody, V domains shown)
# VH: QVQLQQPGAELVRPGASVKLSCKASGYTFTSYWINWVKQRPGQGLEWIGNIYPSDSYTNYNQKFKDKATLTVDKSSSTAYMQLSSPTSEDSAVYYCTRSWRGNSFDYWGQGTTLTVSS
# VL: DIVMTQSPSSLTVTAGEKVTMSCKSSQSLLNSGNQKNYLTWYQQKPGQPPKLLIYWASTRESGVPDRFTGSGSGTDFTLTISSVQAEDLAVYYCQNDYSYPFTFGSGTKLEIKR
# B2: chAb18 (antibody, V domains shown)
# VH: QVQLKESGPGLVAPSQSLSITCTVSGFSLTTYGINWVRQPPGKGLEWLGVIWGDGSTNYHSALISRLSISKDNSKSQVFLKLNSLQTDDTATYYCVKSSYYGNAMDYWGQGTSVTVSS
# VL: DIVMTQSPSSLTVTAGETVTMSCKSSQSLLNSGNQKNYLTWYQQKPGQPPKLLIYWASTRESGVPDRFTGSGSGTDFTLTISSVQAEDLAVYYCQNVYSYPFTFGSGTKLEI
# B3: chAb29 (antibody, V domains shown)
# VH: EVLLQQSGPELVKPGASVKIPCKASGYTLTDHSMDWVKQSHGKSLEWIGNILPNNGGNIYNQKFRGKATLTVDKSSSTAYMELRSLTSEDTAVYNCARGHYGNSFAYWGQGTLVIVS
# VL: DIVMTQSPSSLTVRAGEKVTIYCKSSQSLFNSGNQKNYLTWYQQKPGQPPKLLIYWASTRESGVPHRFTGSGSGTDFTLTISSMQADDLATYYCQNGYFFPYTFGGGTKLEIK
# B4: chAb31 (antibody, V domains shown)
# VH: QIQLAQSGPELKKPGETVKISCKASGYSFTNYGMNWVKQAPGKGLKWMGWINTYSGETKYADDFKGRFDFSLETSARTAYLQIKNLKIEDTATYFCARRDAMDYWGQGTSVTVSS
# VL: DIVMTQAAPSVPVTPGESVSISCRSSKSLLNSNGNTYLYWFLQRPGQSPQLLIYRMSNLASGVPDRFSGSGSGTAFTLRISRVEAEDVGVYYCMQHLEFPFTFGSGTKLEIK
# B5: chAb30 (antibody, V domains shown)
# VH: QVQLKESGPGLVAPSQSLSITCTVSGFSLTKFGVNWVRQPPGKGLEWLGAIWGDGSTNYHSALISRLSINKDNSKSQVFLKLSSLQNVDTATYYCAKSGYGNAMDYWGHGTSVTVSS
# VL: DIVMTQSPSSLTVTTGEKVTLNCKSSQSLLNSGNLKNYLTWYQQRPGQPPKLLIYWASTRESGVPYRFTGSGSGTDFTLTISNVQAEDLAIYYCQNDYFFPFTFGSGTKLEIK
# B6: chAb24 (antibody, V domains shown)
# VH: EVKLVESGGGLVKPGGSLKLSCAGSGFTFSSYTMSWVRQTPEKRLEWVATITIGVNIYYLDSVKGRFTISRDNAKNTLYLQMNSLRSEDTALYYCTRLGQTQRNAMDYWGQGTSVTVSS
# VL: DIVMTQSPTSLSVSAGEKVTMTCKSSQSLFNSGNQKNYLAWYQEKPGQPPKLLIYGASTRESGVPDRFTGSGSGTDFTLTISSVQAEDLAVYYCQNVHFYPFTFGAGTKLEL
# B7: chAb25 (antibody, V domains shown)
# VH: EAQLQQSGPELVKPGASVKIFCKASGYTFTDYYINWVKQSHGKSLEWIGDINPNNGGTTYNQKFKGKATLTVDKSSSTASMELRRLTSEDSSVYYCARRDAMDYWGQGTSVTVSS
# VL: DIVMTQSQKFMSTTVGDRVSITCTASQNVGPAVAWYQQKPGQSPKLLIYSASRRFTGVPDRFTGSGSGTVFTLTINNVQSEDLADYFCQQYISYPLTFGAGTKLELK
# B8: chAb11 (antibody, V domains shown)
# VH: EVMLVESGGDLVKPGGSLKLSCAASGFTFSRYTMSWVRQTPEKRLEWVATVSVGSGNTYYLDSVKGRFTISRDNAKNTLFLQMNSLRSEDTALYYCTRLGQTQRNAVDYWGQGTSVTVSS
# VL: DIVMTQSPSFLSVSAGEKVTMSCKSSQSLFNGGNQKNYLAWYQQKPGQPPKLLIYGASTRDSGVPDRFTGSGSGTDFTLTISNVQAEDLAIYFCQNDHSFPLTFGAGTKLELK
# B9: chAb08 (antibody, V domains shown)
# VH: QVQLQQPGAELVKPGASVKLSCKASGYTFTSYLLHWVKQRPGQGLEWIGMIHPNGGSTNYNEKFKTKATLTVDKSSSTAYMQLSSLTSEDSAVYYCAPVYFGNSFAYWGQGTLVTVSA
# VL: DIVMTQSPSSLTVTAGEKVTMSCKSSQSLLNSGNQKNYLTWYQQKPGQPPKLLIYWASTRESGVPDRFTGSGSGTDFTLTISSVQAEDLAVYYCQNDYYYPFTFGSGTKLEKK
# B10: chAb06 (antibody, V domains shown)
# VH: EVQLVASGGGLVKPGGSLKLSCAASGITFRSYAMSWVRQTPEKRLEWVATITDGGSYIFYPDNVKGRFTISGDHAKNNLYLQMSHLKSEDTALYFCVRLYYGNSFAYWGQGTLVTVSA
# VL: B9 VL with M21L, S22N, L30F, I81F, D97A, Y99I, K112I
# B11: chAb04 (antibody, V domains shown)
# VH: EVQLQQSGPELVKPGASVKMSCMASGYTFTDYNIHWVKRSHGSRLEWIGYISPISGGAGYNQKFMDKATLTVDKSSNTAYMELRSLTSEDSAVYYCTRGDYWGQGTTLTVSS
# VL: DIVMTQSPSSLAVTVGEKVTMSCKSSQSLLNSGNQKNYLTWYQQKPGQPPKLLIYWASTRKSGVPDRFTGSGSGTDFTLTISSVQAEDLGIYYCLNDYGFPLTFGAGSKLELK
# Biological target: T1, human Claudin18.2 (CLDN18.2) (human, UniProt P56856 1-261)
# T1 construct: the cell line is named under assay; also called human Claudine18.2; hClaudin18.2
# Assay: FACS on GAXC031 cells
row,Binder,EC50 [nM]
1,B1,36.1

# Biological target: T1, human Claudin18.2 (CLDN18.2)
# Assay: cell-based or functional assay
Binder,ADCC EC50 [nM],"Max tumor cell killing (% of control), ADCC"
B2,5.07,61.5 % of control
B3,5.27,60.9 % of control
B4,8.16,78.8 % of control
B5,7.44,80.2 % of control
B6,4.46,66.6 % of control
B1,36.1,30.7 % of control
B7,8.38,76.8 % of control
B8,3.7,54.7 % of control
B9,2.22,69.3 % of control
B10,3.01,40.6 % of control

# Biological target: T1, human Claudin18.2 (CLDN18.2)
# Assay: cell-based or functional assay
# Remark: another data set of the same source
Binder,CDC EC50 [nM],Max CDC induced tumor cell killing (% of control)
B2,35,75.3 % of control
B3,12.7,67.8 % of control
B4,37.9,60.7 % of control
B5,23.2,76.1 % of control
B6,12.8,70.7 % of control
B1,809,52.5 % of control
B7,25.4,72.9 % of control
B8,19.4,71.2 % of control
B9,13.6,68.4 % of control
B10,9.72,75.4 % of control

# Biological target: T1, human Claudin18.2 (CLDN18.2)
# Assay: cell-based or functional assay
# Remark: another data set of the same source
Binder,IC50 of indirect ADC cytotoxicity [nM],Max inhibition % [%]
B2,1.58,90.7
B3,0.91,93.5
B4,2.35,91.7
B5,1.58,92.4
B6,0.85,92.7
B1,4.75,81.8
B7,0.86,92.9
B8,0.87,93.5
B9,0.45,92.5
B10,0.61,91.8

# Biological target: T1, human Claudin18.2 (CLDN18.2)
# Assay: FACS on CHOK1-18.2 cells
row,Binder,EC50 [nM]
1,B2,7.71
2,B3,6.63
3,B4,5.17
4,B5,9.76
5,B6,4.99
6,B11,2.14
7,B1,5.69
8,B7,8.27
9,B8,3.63
10,B9,3.6
11,B10,5.42

# Biological target: T1, human Claudin18.2 (CLDN18.2)
# Assay: FACS on GAXC031 cells, antibody at 50 µg/ml
row,Binder,MAX MFI
1,B2,3690
2,B3,5640
3,B4,3770
4,B5,4460
5,B6,5860
6,B11,3860
7,B1,742
8,B7,3020
9,B8,6420
10,B9,5830
11,B10,5460

# Biological target: T1, human Claudin18.2 (CLDN18.2)
# Assay: FACS on CHOK1-18.2 cells, antibody at 50 µg/ml
row,Binder,MAX MFI
1,B2,60200
2,B3,63400
3,B4,59900
4,B5,65000
5,B6,64500
6,B11,75300
7,B1,49600
8,B7,56100
9,B8,85600
10,B9,71900
11,B10,92800
